In US20220002700A1, “COMPUTATIONALLY-OPTIMIZED ACE2 PEPTIDES FOR COMPETITIVE INTERCEPTION OF SARS-CoV-2” (priority 2020, published 2022):

System: viruses pseudotyped with the SARS-CoV-2 S protein
Type: cell-based

B1: 23-mer (A2N)-CHIPΔTPR fusion (protein)
chain: QNKTFLDKFNHEAEDLFYQSSLAMRLNFGDDIPSALRIAKKKRWNSIEERRIHQESELHSYLSRLIAAERERELEECQRNHEGDEDDSHVRAQQACIEAKHDKYMADMDELFSQVDEKRKKRDIPDYLCGKISFELMREPCITPSGITYDRKDIEEHLQRVGHFDPVTRSPLTQEQLIPNLAMKEVIDAFISENGWVEDY
reduction of the infection rate of the pseudovirus: ~60%
